From article PMC5240591
Where two headings read alike, the source gives them in different places.

Assays:
Experiment in all cases: fluorescence polarisation
[1] = target: T4 lysozyme mutant L99A/A130S, bimane-labelled at Cys151 (T151Bi) (bacteriophage T4) (UniProt P00720)
[2] = target: T4 lysozyme mutant L99A, bimane-labelled at Cys151 (T151Bi) (bacteriophage T4) (UniProt P00720)
[3] = target: T4 lysozyme mutant L99A, bimane-labelled at Cys151 (T151Bi) (bacteriophage T4) (UniProt P00720); remark: listed apart in the source
[4] = target: T4 lysozyme mutant L99A/A130S, bimane-labelled at Cys151 (T151Bi) (bacteriophage T4) (UniProt P00720); remark: listed apart in the source
[5] = target: T4 lysozyme mutant D70N, bimane-labelled at Cys151 (T151Bi) (bacteriophage T4) (UniProt P00720)
[6] = target: T4 lysozyme mutant L99A, bimane-labelled at Cys151 (T151Bi) (bacteriophage T4) (UniProt P00720); remark: listed apart in the source
[7] = target: T4 lysozyme mutant L99A/A130S, bimane-labelled at Cys151 (T151Bi) (bacteriophage T4) (UniProt P00720); remark: listed apart in the source
[8] = target: T4 lysozyme mutant L99A, bimane-labelled at Cys151 (T151Bi) (bacteriophage T4) (UniProt P00720); remark: listed apart in the source

Substance | Kd [1] | Kd [2] | Kd [3] | Kd [4] | stoichiometry N [4] | Kd [5] | Kd [6] | Kd [7] | stoichiometry N [3] | stoichiometry N [6] | Kd [8] | stoichiometry N [8]
zebrafish αA-crystallin (from UniProt Q8UUZ6 1-173) (natural protein) | 20900 nM | 50700 nM | 8320 nM | 6200 nM | 1.25 | 88900 nM | 8160 nM |  |  |  |  | 
zebrafish αBb-crystallin (from UniProt Q6DG35 1-165) (natural protein) | 4940 nM |  |  | 120 nM | 0.33 | 4850 nM | 1340 nM | 29000 nM |  |  |  | 
triply phosphorylated analog (S15D/S78D/S82D) of human Hsp27 (from UniProt P04792 1-205) (natural protein) |  |  | 38 nM |  |  |  |  |  |  |  |  | 
triply phosphorylated analog (S19D/S45D/S59D) of human αB-crystallin (from UniProt P02511 1-175) (natural protein) |  |  | 71 nM |  |  |  |  |  |  |  |  | 
human αA-crystallin (from UniProt P02489 1-173) (natural protein) |  |  | 1900 nM | 2370 nM |  | 14600 nM | 2430 nM |  |  |  |  | 
human αB-crystallin (from UniProt P02511 1-175) (natural protein) |  |  | 28000 nM |  |  |  |  |  |  |  |  | 
zebrafish αBa-crystallin, population αBa-S (from UniProt Q9PUR2 1-168) (natural protein) | 210 nM | 920 nM | 68 nM | 63 nM | 0.65 | 1870 nM | 58 nM |  | 0.65 | 0.47 | 12 nM | 0.64
rat αA^ins-crystallin (from UniProt P24623 1-196) (natural protein) |  |  |  | 64 nM | 0.32 | 6820 nM | 17 nM |  |  | 0.33 |  | 
